Sequences and labels used below:
T1: EsCas13d, nuclease-dead (Eubacterium siraeum, UniProt B0MS50, R295A;H300A;R849A;H854A)
T1 sequence: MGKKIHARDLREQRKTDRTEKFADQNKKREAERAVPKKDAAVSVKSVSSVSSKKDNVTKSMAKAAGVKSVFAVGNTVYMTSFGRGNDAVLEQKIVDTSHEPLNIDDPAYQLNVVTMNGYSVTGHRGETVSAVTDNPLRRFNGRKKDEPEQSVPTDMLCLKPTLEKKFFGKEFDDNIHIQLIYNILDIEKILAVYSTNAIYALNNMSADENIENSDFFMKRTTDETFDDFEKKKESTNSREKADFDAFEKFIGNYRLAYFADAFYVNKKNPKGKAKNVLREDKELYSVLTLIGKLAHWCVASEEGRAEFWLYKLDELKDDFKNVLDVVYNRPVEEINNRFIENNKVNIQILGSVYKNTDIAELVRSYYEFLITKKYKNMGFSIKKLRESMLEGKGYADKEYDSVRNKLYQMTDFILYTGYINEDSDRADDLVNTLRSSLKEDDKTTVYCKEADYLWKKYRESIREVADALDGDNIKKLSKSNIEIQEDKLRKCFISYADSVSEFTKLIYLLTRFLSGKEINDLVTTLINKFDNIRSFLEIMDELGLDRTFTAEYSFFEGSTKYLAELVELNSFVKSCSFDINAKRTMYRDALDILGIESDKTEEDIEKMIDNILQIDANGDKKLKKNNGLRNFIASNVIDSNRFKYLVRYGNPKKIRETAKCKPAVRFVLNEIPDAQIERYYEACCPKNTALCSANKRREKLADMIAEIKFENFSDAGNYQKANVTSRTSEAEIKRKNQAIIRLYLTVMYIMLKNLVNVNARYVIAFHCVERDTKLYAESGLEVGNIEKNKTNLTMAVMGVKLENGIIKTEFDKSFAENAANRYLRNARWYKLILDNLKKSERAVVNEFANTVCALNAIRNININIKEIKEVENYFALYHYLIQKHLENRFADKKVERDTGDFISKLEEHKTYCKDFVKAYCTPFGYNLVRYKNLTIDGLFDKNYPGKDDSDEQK

B1: target 1 A9C,U11G (mixed)
RNA 1: CACCCGUGCAAAAAUGCAGGGGUCUAAAACUGAGCGGAUAACCUCUCUAUGG
RNA 2: GGGAAUGGAUCCACAUCUACGAAUUCGUACCAUAGAGAGGGUCUCCGCUCACCGAGAUCGGAAGAGCACACGU
B2: target 1 U3G,C6U (mixed)
RNA 1: CACCCGUGCAAAAAUGCAGGGGUCUAAAACUGAGCGGAUAACCUCUCUAUGG
RNA 2: GGGAAUGGAUCCACAUCUACGAAUUCGUACCAUAGAGAGGUUAUCUGCGCACCGAGAUCGGAAGAGCACACGU
B3: target 3 insA 3' of 3,insG 3' of 2 (mixed)
RNA 1: CACCCGUGCAAAAUUGCAGGGGUCUAAAACGACCUGAAUAUUUCAGAUCAAA
RNA 2: GGGAAUGGAUCCACAUCUACGAAUUCGUUUUUGAUCUGAAAUAUUCAGGAUGCUGCAGAUCGGAAGAGCACACGU
B4: target 3 insA 3' of 21,insA 3' of 6 (mixed)
RNA 1: CACCCGUGCAAAAUUGCAGGGGUCUAAAACGACCUGAAUAUUUCAGAUCAAA
RNA 2: GGGAAUGGAUCCACAUCUACGAAUUCGUUUUAUGAUCUGAAAUAUUCAAGGUCUGCAGAUCGGAAGAGCACACGU
B5: target 3 insC 3' of 10,insC 3' of 3 (mixed)
RNA 1: CACCCGUGCAAAAUUGCAGGGGUCUAAAACGACCUGAAUAUUUCAGAUCAAA
RNA 2: GGGAAUGGAUCCACAUCUACGAAUUCGUUUUUGAUCUGAAAUCAUUCAGGCUCUGCAGAUCGGAAGAGCACACGU
B6: target 3 insA 3' of 6,insU 3' of 5 (mixed)
RNA 1: CACCCGUGCAAAAUUGCAGGGGUCUAAAACGACCUGAAUAUUUCAGAUCAAA
RNA 2: GGGAAUGGAUCCACAUCUACGAAUUCGUUUUUGAUCUGAAAUAUUCAAUGGUCUGCAGAUCGGAAGAGCACACGU
B7: target 3 insA 3' of 22,insA 3' of 7 (mixed)
RNA 1: CACCCGUGCAAAAUUGCAGGGGUCUAAAACGACCUGAAUAUUUCAGAUCAAA
RNA 2: GGGAAUGGAUCCACAUCUACGAAUUCGUUUAUUGAUCUGAAAUAUUACAGGUCUGCAGAUCGGAAGAGCACACGU
B8: target 3 U7A,A13G (mixed)
RNA 1: CACCCGUGCAAAAUUGCAGGGGUCUAAAACGACCUGAAUAUUUCAGAUCAAA
RNA 2: GGGAAUGGAUCCACAUCUACGAAUUCGUUUUUGAUCUGGAAUAUACAGGUCUGCAGAUCGGAAGAGCACACGU
B9: target 3 insU 3' of 5,insA 3' of 3 (mixed)
RNA 1: CACCCGUGCAAAAUUGCAGGGGUCUAAAACGACCUGAAUAUUUCAGAUCAAA
RNA 2: GGGAAUGGAUCCACAUCUACGAAUUCGUUUUUGAUCUGAAAUAUUCAUGGAUCUGCAGAUCGGAAGAGCACACGU
B10: target 3 insG 3' of 8,insC 3' of 3 (mixed)
RNA 1: CACCCGUGCAAAAUUGCAGGGGUCUAAAACGACCUGAAUAUUUCAGAUCAAA
RNA 2: GGGAAUGGAUCCACAUCUACGAAUUCGUUUUUGAUCUGAAAUAUGUCAGGCUCUGCAGAUCGGAAGAGCACACGU
B11: target 3 A5G,A18G (mixed)
RNA 1: CACCCGUGCAAAAUUGCAGGGGUCUAAAACGACCUGAAUAUUUCAGAUCAAA
RNA 2: GGGAAUGGAUCCACAUCUACGAAUUCGUUUUUGGUCUGAAAUAUUCGGGUCUGCAGAUCGGAAGAGCACACGU
B12: target 3 G3A,C6A (mixed)
RNA 1: CACCCGUGCAAAAUUGCAGGGGUCUAAAACGACCUGAAUAUUUCAGAUCAAA
RNA 2: GGGAAUGGAUCCACAUCUACGAAUUCGUUUUUGAUCUGAAAUAUUAAGAUCUGCAGAUCGGAAGAGCACACGU
B13: target 3 insG 3' of 11,insC 3' of 3 (mixed)
RNA 1: CACCCGUGCAAAAUUGCAGGGGUCUAAAACGACCUGAAUAUUUCAGAUCAAA
RNA 2: GGGAAUGGAUCCACAUCUACGAAUUCGUUUUUGAUCUGAAAGUAUUCAGGCUCUGCAGAUCGGAAGAGCACACGU
B14: target 3 insU 3' of 22,insU 3' of 16 (mixed)
RNA 1: CACCCGUGCAAAAUUGCAGGGGUCUAAAACGACCUGAAUAUUUCAGAUCAAA
RNA 2: GGGAAUGGAUCCACAUCUACGAAUUCGUUUUUUGAUCUUGAAAUAUUCAGGUCUGCAGAUCGGAAGAGCACACGU
B15: target 3 insC 3' of 3,insG 3' of 2 (mixed)
RNA 1: CACCCGUGCAAAAUUGCAGGGGUCUAAAACGACCUGAAUAUUUCAGAUCAAA
RNA 2: GGGAAUGGAUCCACAUCUACGAAUUCGUUUUUGAUCUGAAAUAUUCAGGCUGCUGCAGAUCGGAAGAGCACACGU
B16: target 3 insG 3' of 8,insC 3' of 8 (mixed)
RNA 1: CACCCGUGCAAAAUUGCAGGGGUCUAAAACGACCUGAAUAUUUCAGAUCAAA
RNA 2: GGGAAUGGAUCCACAUCUACGAAUUCGUUUUUGAUCUGAAAUAUGCUCAGGUCUGCAGAUCGGAAGAGCACACGU
B17: target 3 A12U,A18G (mixed)
RNA 1: CACCCGUGCAAAAUUGCAGGGGUCUAAAACGACCUGAAUAUUUCAGAUCAAA
RNA 2: GGGAAUGGAUCCACAUCUACGAAUUCGUUUUUGGUCUGAUAUAUUCAGGUCUGCAGAUCGGAAGAGCACACGU
B18: target 3 insA 3' of 2,insA 3' of 1 (mixed)
RNA 1: CACCCGUGCAAAAUUGCAGGGGUCUAAAACGACCUGAAUAUUUCAGAUCAAA
RNA 2: GGGAAUGGAUCCACAUCUACGAAUUCGUUUUUGAUCUGAAAUAUUCAGGUACAUGCAGAUCGGAAGAGCACACGU
B19: target 3 U2C,A5U (mixed)
RNA 1: CACCCGUGCAAAAUUGCAGGGGUCUAAAACGACCUGAAUAUUUCAGAUCAAA
RNA 2: GGGAAUGGAUCCACAUCUACGAAUUCGUUUUUGAUCUGAAAUAUUCUGGCCUGCAGAUCGGAAGAGCACACGU
B20: target 3 A5G,C6U (mixed)
RNA 1: CACCCGUGCAAAAUUGCAGGGGUCUAAAACGACCUGAAUAUUUCAGAUCAAA
RNA 2: GGGAAUGGAUCCACAUCUACGAAUUCGUUUUUGAUCUGAAAUAUUUGGGUCUGCAGAUCGGAAGAGCACACGU
B21: target 3 A12G,U22G (mixed)
RNA 1: CACCCGUGCAAAAUUGCAGGGGUCUAAAACGACCUGAAUAUUUCAGAUCAAA
RNA 2: GGGAAUGGAUCCACAUCUACGAAUUCGUUGUUGAUCUGAGAUAUUCAGGUCUGCAGAUCGGAAGAGCACACGU
B22: target 3 G3U,A5G (mixed)
RNA 1: CACCCGUGCAAAAUUGCAGGGGUCUAAAACGACCUGAAUAUUUCAGAUCAAA
RNA 2: GGGAAUGGAUCCACAUCUACGAAUUCGUUUUUGAUCUGAAAUAUUCGGUUCUGCAGAUCGGAAGAGCACACGU
B23: target 3 insC 3' of 5,insG 3' of 2 (mixed)
RNA 1: CACCCGUGCAAAAUUGCAGGGGUCUAAAACGACCUGAAUAUUUCAGAUCAAA
RNA 2: GGGAAUGGAUCCACAUCUACGAAUUCGUUUUUGAUCUGAAAUAUUCACGGUGCUGCAGAUCGGAAGAGCACACGU
B24: target 3 insA 3' of 14,insU 3' of 3 (mixed)
RNA 1: CACCCGUGCAAAAUUGCAGGGGUCUAAAACGACCUGAAUAUUUCAGAUCAAA
RNA 2: GGGAAUGGAUCCACAUCUACGAAUUCGUUUUUGAUCUGAAAAUAUUCAGGUUCUGCAGAUCGGAAGAGCACACGU
B25: target 3 C6U,U10C (mixed)
RNA 1: CACCCGUGCAAAAUUGCAGGGGUCUAAAACGACCUGAAUAUUUCAGAUCAAA
RNA 2: GGGAAUGGAUCCACAUCUACGAAUUCGUUUUUGAUCUGAAACAUUUAGGUCUGCAGAUCGGAAGAGCACACGU
B26: target 3 A9G,U22G (mixed)
RNA 1: CACCCGUGCAAAAUUGCAGGGGUCUAAAACGACCUGAAUAUUUCAGAUCAAA
RNA 2: GGGAAUGGAUCCACAUCUACGAAUUCGUUGUUGAUCUGAAAUGUUCAGGUCUGCAGAUCGGAAGAGCACACGU
B27: target 3 insC 3' of 22,insC 3' of 3 (mixed)
RNA 1: CACCCGUGCAAAAUUGCAGGGGUCUAAAACGACCUGAAUAUUUCAGAUCAAA
RNA 2: GGGAAUGGAUCCACAUCUACGAAUUCGUUUCUUGAUCUGAAAUAUUCAGGCUCUGCAGAUCGGAAGAGCACACGU

One may read the Kd as the equilibrium constant for the complex coming apart. Read a low Kd as a tighter complex.

This series deals with T1, EsCas13d, nuclease-dead. In words: crRNA (strand 1, pre-loaded); Mg2+; 40 mM Tris-HCl pH 7.5, 150 mM NaCl, 6 mM MgCl2, 1 mM DTT, 0.1% Tween-20, 0.2 mg/ml BSA; 25 C; 10 min per concentration, then washed. Particulars: tags: His6-TwinStrep-SUMO cleaved; N-terminal SNAP kept (SNAP-Surface 488); label: 3' end held by stalled T7 RNA polymerase.
B1 displayed a Kd of 44 ± 6 nM.

As for B2, the Kd was 4.79 ± 0.35 nM.

Molecule B3 showed a Kd of 24.6 ± 3.4 nM.

In the case of B4, the Kd was 38.4 ± 4.75 nM.

B5 registered a Kd of approximately 96 nM.

As for B6, the Kd turned out to be 4 ± 0.27 nM.

With B7, the dissociation constant Kd was 65 ± 21.5 nM.

B8 returned a Kd of 100 ± 50 nM.

In turn, B9 returned a Kd of 6.39 ± 0.52 nM.

B10 gave a Kd of 38.8 ± 5.05 nM.

B11 yielded a Kd of 30.6 ± 4.5 nM.

Consider B12, for which binding was put at a Kd of 51.5 ± 5.5 nM.

As for B13, the Kd was found to be 76 ± 21.5 nM.

In turn, B14 registered an equilibrium dissociation constant (Kd) of 58 ± 9 nM.

For the molecule B15, the Kd was found to be 10.6 ± 1.25 nM.

For the molecule B16, the Kd came to 58 ± 8.5 nM.

Molecule B17 yielded a Kd of 97 ± 34 nM.

Regarding B18, binding was characterised by a dissociation constant (Kd) of 34.3 ± 4.25 nM.

B19 registered a Kd of 36.4 ± 3.4 nM.

On to B20, for which the Kd turned out to be 11.5 ± 1.3 nM.

The molecule B21 had a Kd of 86 ± 20 nM.

B22: the affinity, expressed as Kd, was 25.4 ± 2.4 nM.

As to B23, the Kd is 29 ± 2.8 nM.

B24: the Kd was determined as 90.5 ± 40.5 nM.

Take B25: binding was put at a Kd of 88 ± 11.5 nM.

B26: binding was put at a Kd of 69.5 ± 16.5 nM.

In the case of B27, binding was put at a Kd of 33 ± 4.5 nM.

Values taken from article PMC10786891, “Massively parallel profiling of RNA-targeting CRISPR-Cas13d”.
